What is called IC50 is the point on the concentration scale where inhibition reaches its midpoint.

This note sets out measurements from patent US20140087995A1 (published 2014).

Assay [1] has as its target T1, human calcitonin receptor (human, UniProt P30988 25-474).
T1 construct: whole, on cells; also called hCTR; hCT
T1 sequence (looked up): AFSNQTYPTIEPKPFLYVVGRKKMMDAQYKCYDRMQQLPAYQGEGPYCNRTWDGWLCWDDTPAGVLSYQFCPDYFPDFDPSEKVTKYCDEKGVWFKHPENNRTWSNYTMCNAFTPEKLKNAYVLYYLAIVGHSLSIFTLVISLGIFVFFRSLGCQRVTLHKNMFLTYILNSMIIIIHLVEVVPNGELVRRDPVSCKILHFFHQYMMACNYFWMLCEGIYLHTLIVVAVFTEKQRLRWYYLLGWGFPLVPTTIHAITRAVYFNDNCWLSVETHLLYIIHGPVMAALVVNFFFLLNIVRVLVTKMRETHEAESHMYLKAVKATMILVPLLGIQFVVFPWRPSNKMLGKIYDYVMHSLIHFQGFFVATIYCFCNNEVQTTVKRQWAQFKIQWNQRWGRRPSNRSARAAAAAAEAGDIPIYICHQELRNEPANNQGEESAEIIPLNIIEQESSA
Briefly: SPA radioligand competition (125I-calcitonin), membranes of BHK cells with human calcitonin receptor. In a few lines:
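BHK hCTR membranes 35 ng/μL + SPA beads 0.05 mg/well; buffer 50 mM Hepes pH 7.4, 1 mM CaCl2, 5 mM MgCl₂, 0.1% OA, 0.02% Tween20. 120 min, 25° C., shaking. Scintillation count; IC50 by one-site binding competition.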

The target of assay [2] is T1, human calcitonin receptor. Briefly: ratio of IC50 at human calcitonin receptor to IC50 at human amylin receptor (SPA competition assays). The gist of the method:
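Competition binding by SPA uses membrane preparations (35 ng/μL final) in pH 7.4 Hepes buffer with 1 mM CaCl2 and 5 mM MgCl₂. Incubation lasts 120 min at 25° C, and IC₅₀ comes from one-site fitting.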

Numbered stars: 1 amine (or outer) side, 2 acyl side, 3 side chain; on linkers, the order of the positions; unused ones are H or OH. Bridge positions count the residues as written; N and C are the ends. Side chains are listed from the residue outwards. Ends that are not written are not given here. * marks the point of attachment. C20 diacid = O=C(O)CCCCCCCCCCCCCCCCCCC(=O)*; γGlu = O=C(O)[C@H](CCC(=O)[*:2])N[*:1]

B1: N^ε1-[(4S)-4-carboxy-4-(19-carboxynonadecanoylamino)butanoyl]-[His14,Arg17,Pro21,Pro27]-h-amylin (peptide)
peptide: K([γGlu-C20 diacid])CNTATCATQRLAHFLRHSSPNFGAIPSSTNVGSNTY-NH2
modifications: disulfide 2-7; N-terminus assumed
SMILES: CC[C@H](C)[C@H](NC(=O)[C@H](C)NC(=O)CNC(=O)[C@H](Cc1ccccc1)NC(=O)[C@H](CC(N)=O)NC(=O)[C@@H]1CCCN1C(=O)[C@H](CO)NC(=O)[C@H](CO)NC(=O)[C@H](Cc1c[nH]cn1)NC(=O)[C@H](CCCNC(=N)N)NC(=O)[C@H](CC(C)C)NC(=O)[C@H](Cc1ccccc1)NC(=O)[C@H](Cc1c[nH]cn1)NC(=O)[C@H](C)NC(=O)[C@H](CC(C)C)NC(=O)[C@H](CCCNC(=N)N)NC(=O)[C@H](CCC(N)=O)NC(=O)[C@@H](NC(=O)[C@H](C)NC(=O)[C@@H]1CSSC[C@H](NC(=O)[C@@H](N)CCCCNC(=O)CC[C@H](NC(=O)CCCCCCCCCCCCCCCCCCC(=O)O)C(=O)O)C(=O)N[C@@H](CC(N)=O)C(=O)N[C@@H]([C@@H](C)O)C(=O)N[C@@H](C)C(=O)N[C@@H]([C@@H](C)O)C(=O)N1)[C@@H](C)O)C(=O)N1CCC[C@H]1C(=O)N[C@@H](CO)C(=O)N[C@@H](CO)C(=O)N[C@H](C(=O)N[C@@H](CC(N)=O)C(=O)N[C@H](C(=O)NCC(=O)N[C@@H](CO)C(=O)N[C@@H](CC(N)=O)C(=O)N[C@H](C(=O)N[C@@H](Cc1ccc(O)cc1)C(N)=O)[C@@H](C)O)C(C)C)[C@@H](C)O
notes: also called compound 70
For the molecule B1, in assay [1], the IC50 was determined as 10.3 nM. Further, the “Ratio hCT/hAmylin binding” value in assay [2] turned out to be 60.8.

B2: N^ε1-[(4S)-4-carboxy-4-[[(4S)-4-carboxy-4-(19-carboxynonadecanoylamino)butanoyl]amino]butanoyl]-[Arg17,Pro21,Pro27,Pro31,Pro34,Arg35]-h-amylin (peptide)
peptide: K([γGlu-γGlu-C20 diacid])CNTATCATQRLANFLRHSSPNFGAIPSSTPVGPRTY-NH2
modifications: disulfide 2-7; N-terminus assumed
SMILES: CC[C@H](C)[C@H](NC(=O)[C@H](C)NC(=O)CNC(=O)[C@H](Cc1ccccc1)NC(=O)[C@H](CC(N)=O)NC(=O)[C@@H]1CCCN1C(=O)[C@H](CO)NC(=O)[C@H](CO)NC(=O)[C@H](Cc1c[nH]cn1)NC(=O)[C@H](CCCNC(=N)N)NC(=O)[C@H](CC(C)C)NC(=O)[C@H](Cc1ccccc1)NC(=O)[C@H](CC(N)=O)NC(=O)[C@H](C)NC(=O)[C@H](CC(C)C)NC(=O)[C@H](CCCNC(=N)N)NC(=O)[C@H](CCC(N)=O)NC(=O)[C@@H](NC(=O)[C@H](C)NC(=O)[C@@H]1CSSC[C@H](NC(=O)[C@@H](N)CCCCNC(=O)CC[C@H](NC(=O)CC[C@H](NC(=O)CCCCCCCCCCCCCCCCCCC(=O)O)C(=O)O)C(=O)O)C(=O)N[C@@H](CC(N)=O)C(=O)N[C@@H]([C@@H](C)O)C(=O)N[C@@H](C)C(=O)N[C@@H]([C@@H](C)O)C(=O)N1)[C@@H](C)O)C(=O)N1CCC[C@H]1C(=O)N[C@@H](CO)C(=O)N[C@@H](CO)C(=O)N[C@H](C(=O)N1CCC[C@H]1C(=O)N[C@H](C(=O)NCC(=O)N1CCC[C@H]1C(=O)N[C@@H](CCCNC(=N)N)C(=O)N[C@H](C(=O)N[C@@H](Cc1ccc(O)cc1)C(N)=O)[C@@H](C)O)C(C)C)[C@@H](C)O
As for B2, the IC50 in assay [1] is 42.8 nM. Also, in assay [2], the “Ratio hCT/hAmylin binding” value stood at 48.6.

B3: N^ε1-[(4S)-4-carboxy-4-[[(4S)-4-carboxy-4-(19-carboxynonadecanoylamino)butanoyl]amino]butanoyl]-[Glu14,Arg17,Pro21,Pro27,Arg35]-h-amylin (peptide)
peptide: K([γGlu-γGlu-C20 diacid])CNTATCATQRLAEFLRHSSPNFGAIPSSTNVGSRTY-NH2
modifications: disulfide 2-7; N-terminus assumed
SMILES: CC[C@H](C)[C@H](NC(=O)[C@H](C)NC(=O)CNC(=O)[C@H](Cc1ccccc1)NC(=O)[C@H](CC(N)=O)NC(=O)[C@@H]1CCCN1C(=O)[C@H](CO)NC(=O)[C@H](CO)NC(=O)[C@H](Cc1c[nH]cn1)NC(=O)[C@H](CCCNC(=N)N)NC(=O)[C@H](CC(C)C)NC(=O)[C@H](Cc1ccccc1)NC(=O)[C@H](CCC(=O)O)NC(=O)[C@H](C)NC(=O)[C@H](CC(C)C)NC(=O)[C@H](CCCNC(=N)N)NC(=O)[C@H](CCC(N)=O)NC(=O)[C@@H](NC(=O)[C@H](C)NC(=O)[C@@H]1CSSC[C@H](NC(=O)[C@@H](N)CCCCNC(=O)CC[C@H](NC(=O)CC[C@H](NC(=O)CCCCCCCCCCCCCCCCCCC(=O)O)C(=O)O)C(=O)O)C(=O)N[C@@H](CC(N)=O)C(=O)N[C@@H]([C@@H](C)O)C(=O)N[C@@H](C)C(=O)N[C@@H]([C@@H](C)O)C(=O)N1)[C@@H](C)O)C(=O)N1CCC[C@H]1C(=O)N[C@@H](CO)C(=O)N[C@@H](CO)C(=O)N[C@H](C(=O)N[C@@H](CC(N)=O)C(=O)N[C@H](C(=O)NCC(=O)N[C@@H](CO)C(=O)N[C@@H](CCCNC(=N)N)C(=O)N[C@H](C(=O)N[C@@H](Cc1ccc(O)cc1)C(N)=O)[C@@H](C)O)C(C)C)[C@@H](C)O
notes: also called compound 89
For B3, in assay [1], the IC50 amounted to 32.5 nM. Moreover, the “Ratio hCT/hAmylin binding” value in assay [2] was 28.

B4: N^ε1-[(4S)-4-carboxy-4-[[(4S)-4-carboxy-4-(19-carboxynonadecanoylamino)butanoyl]amino]butanoyl]-[Glu14,Arg17,Pro21,Pro27,His34,Glu35]-h-amylin (peptide)
peptide: K([γGlu-γGlu-C20 diacid])CNTATCATQRLAEFLRHSSPNFGAIPSSTNVGHETY-NH2
modifications: disulfide 2-7; N-terminus assumed
SMILES: CC[C@H](C)[C@H](NC(=O)[C@H](C)NC(=O)CNC(=O)[C@H](Cc1ccccc1)NC(=O)[C@H](CC(N)=O)NC(=O)[C@@H]1CCCN1C(=O)[C@H](CO)NC(=O)[C@H](CO)NC(=O)[C@H](Cc1c[nH]cn1)NC(=O)[C@H](CCCNC(=N)N)NC(=O)[C@H](CC(C)C)NC(=O)[C@H](Cc1ccccc1)NC(=O)[C@H](CCC(=O)O)NC(=O)[C@H](C)NC(=O)[C@H](CC(C)C)NC(=O)[C@H](CCCNC(=N)N)NC(=O)[C@H](CCC(N)=O)NC(=O)[C@@H](NC(=O)[C@H](C)NC(=O)[C@@H]1CSSC[C@H](NC(=O)[C@@H](N)CCCCNC(=O)CC[C@H](NC(=O)CC[C@H](NC(=O)CCCCCCCCCCCCCCCCCCC(=O)O)C(=O)O)C(=O)O)C(=O)N[C@@H](CC(N)=O)C(=O)N[C@@H]([C@@H](C)O)C(=O)N[C@@H](C)C(=O)N[C@@H]([C@@H](C)O)C(=O)N1)[C@@H](C)O)C(=O)N1CCC[C@H]1C(=O)N[C@@H](CO)C(=O)N[C@@H](CO)C(=O)N[C@H](C(=O)N[C@@H](CC(N)=O)C(=O)N[C@H](C(=O)NCC(=O)N[C@@H](Cc1c[nH]cn1)C(=O)N[C@@H](CCC(=O)O)C(=O)N[C@H](C(=O)N[C@@H](Cc1ccc(O)cc1)C(N)=O)[C@@H](C)O)C(C)C)[C@@H](C)O
Turning to B4, in assay [1], the IC50 is 15.2 nM. Further, the “Ratio hCT/hAmylin binding” value in assay [2] came out at 29.1.

B5: N^ε1-[(4S)-4-carboxy-4-[[(4S)-4-carboxy-4-(19-carboxynonadecanoylamino)butanoyl]amino]butanoyl]-[Glu14,Arg17,Pro21,Pro27,Arg34]-h-amylin (peptide)
peptide: K([γGlu-γGlu-C20 diacid])CNTATCATQRLAEFLRHSSPNFGAIPSSTNVGRNTY-NH2
modifications: disulfide 2-7; N-terminus assumed
SMILES: CC[C@H](C)[C@H](NC(=O)[C@H](C)NC(=O)CNC(=O)[C@H](Cc1ccccc1)NC(=O)[C@H](CC(N)=O)NC(=O)[C@@H]1CCCN1C(=O)[C@H](CO)NC(=O)[C@H](CO)NC(=O)[C@H](Cc1c[nH]cn1)NC(=O)[C@H](CCCNC(=N)N)NC(=O)[C@H](CC(C)C)NC(=O)[C@H](Cc1ccccc1)NC(=O)[C@H](CCC(=O)O)NC(=O)[C@H](C)NC(=O)[C@H](CC(C)C)NC(=O)[C@H](CCCNC(=N)N)NC(=O)[C@H](CCC(N)=O)NC(=O)[C@@H](NC(=O)[C@H](C)NC(=O)[C@@H]1CSSC[C@H](NC(=O)[C@@H](N)CCCCNC(=O)CC[C@H](NC(=O)CC[C@H](NC(=O)CCCCCCCCCCCCCCCCCCC(=O)O)C(=O)O)C(=O)O)C(=O)N[C@@H](CC(N)=O)C(=O)N[C@@H]([C@@H](C)O)C(=O)N[C@@H](C)C(=O)N[C@@H]([C@@H](C)O)C(=O)N1)[C@@H](C)O)C(=O)N1CCC[C@H]1C(=O)N[C@@H](CO)C(=O)N[C@@H](CO)C(=O)N[C@H](C(=O)N[C@@H](CC(N)=O)C(=O)N[C@H](C(=O)NCC(=O)N[C@@H](CCCNC(=N)N)C(=O)N[C@@H](CC(N)=O)C(=O)N[C@H](C(=O)N[C@@H](Cc1ccc(O)cc1)C(N)=O)[C@@H](C)O)C(C)C)[C@@H](C)O
notes: also called compound 88
For B5, the IC50 in assay [1] came to 34.9 nM. For the same molecule, the “Ratio hCT/hAmylin binding” value in assay [2] amounted to 46.5.

B6: N^ε1-[(4S)-4-carboxy-4-[[(4S)-4-carboxy-4-(19-carboxynonadecanoylamino)butanoyl]amino]butanoyl]-[Asp14,Arg17,Pro21,Pro27,Pro34,Glu35]-h-amylin (peptide)
peptide: K([γGlu-γGlu-C20 diacid])CNTATCATQRLADFLRHSSPNFGAIPSSTNVGPETY-NH2
modifications: disulfide 2-7; N-terminus assumed
SMILES: CC[C@H](C)[C@H](NC(=O)[C@H](C)NC(=O)CNC(=O)[C@H](Cc1ccccc1)NC(=O)[C@H](CC(N)=O)NC(=O)[C@@H]1CCCN1C(=O)[C@H](CO)NC(=O)[C@H](CO)NC(=O)[C@H](Cc1c[nH]cn1)NC(=O)[C@H](CCCNC(=N)N)NC(=O)[C@H](CC(C)C)NC(=O)[C@H](Cc1ccccc1)NC(=O)[C@H](CC(=O)O)NC(=O)[C@H](C)NC(=O)[C@H](CC(C)C)NC(=O)[C@H](CCCNC(=N)N)NC(=O)[C@H](CCC(N)=O)NC(=O)[C@@H](NC(=O)[C@H](C)NC(=O)[C@@H]1CSSC[C@H](NC(=O)[C@@H](N)CCCCNC(=O)CC[C@H](NC(=O)CC[C@H](NC(=O)CCCCCCCCCCCCCCCCCCC(=O)O)C(=O)O)C(=O)O)C(=O)N[C@@H](CC(N)=O)C(=O)N[C@@H]([C@@H](C)O)C(=O)N[C@@H](C)C(=O)N[C@@H]([C@@H](C)O)C(=O)N1)[C@@H](C)O)C(=O)N1CCC[C@H]1C(=O)N[C@@H](CO)C(=O)N[C@@H](CO)C(=O)N[C@H](C(=O)N[C@@H](CC(N)=O)C(=O)N[C@H](C(=O)NCC(=O)N1CCC[C@H]1C(=O)N[C@@H](CCC(=O)O)C(=O)N[C@H](C(=O)N[C@@H](Cc1ccc(O)cc1)C(N)=O)[C@@H](C)O)C(C)C)[C@@H](C)O
Take B6: the IC50 in assay [1] came out at 8.56 nM. Further, the “Ratio hCT/hAmylin binding” value in assay [2] was 49.8.
